Data on five molecules can be found in patent publication US20240325575A1 (WHITEHEAD INSTITUTE FOR BIOMEDICAL RESEARCH, published 2024).

In assay [1] the target is T1, CD11b (mouse, on the CD11b+ mutuDC dendritic cell line and on myeloid cells in vivo) (mouse, UniProt P05555 17-1153).
T1 construct: whole, on cells; On cells CD11b is paired with CD18
Put plainly: FACS, CD11b+ mutuDC dendritic cell line stained in vitro with Alexa647-labeled DC13 monomer or dimer; reference DC13 monomer. The procedure:
(§1) FIGS. 3A-3D (FIGS. 3A-3B) show dimers that are able to stain their targets with increased efficiency compared to their corresponding monomers; for FIG. 3A: cells were stained in vitro with the indicated concentrations of Alexa647-labeled VHH monomers or dimers; for FIG. 3B: equal amount of DC8 monomer and DC8-dimer is injected IV. 2 h p.i., the mice are euthanized and spleens are excised for two-photon imaging. (FIG. 3C) Equal amount of DC8 with or without PEG, both equipped with Texas Red is injected IV. 3 h p.i., the mice are euthanized and spleens are excised for two-photon imaging. (FIG. 3D) Equal amount of DC8 with or without PEG (0.4 nmols), all equipped with Alexa647 is injected IV. 3 h p.i., the mice are euthanized and spleen is excised. Cells were harvested and analyzed with FACS.
(§2) Four sortase substrates were designed and synthesized for production of dimers or PEGylated VHHs (FIG. 1). The substrates either contain two bioorthogonal handles or a handle and a fluorophore. The Alexa647-labeled substrate was designed such that the reaction products could be used in FACS experiments to estimate relative in vitro binding affinities. […] For DC8 (anti Class II), splenocytes were stained with different concentrations of monomers and dimers and analyzed by FACS. […] The in vivo binding characteristics of the VHH dimers versus monomers were evaluated. […]
In general terms: Flow cytometry measures light scatter and fluorescence of single cells or particles in a stream.

Assay [2] addresses T2, Class II MHC (mouse, on splenocytes and lymphoid organs) (mouse, UniProt P14434 24-256; P14483 28-265).
T2 construct: whole, on cells; also called Class II MHC products; Class II MHC molecules
T2 sequence (MHC II alpha, looked up): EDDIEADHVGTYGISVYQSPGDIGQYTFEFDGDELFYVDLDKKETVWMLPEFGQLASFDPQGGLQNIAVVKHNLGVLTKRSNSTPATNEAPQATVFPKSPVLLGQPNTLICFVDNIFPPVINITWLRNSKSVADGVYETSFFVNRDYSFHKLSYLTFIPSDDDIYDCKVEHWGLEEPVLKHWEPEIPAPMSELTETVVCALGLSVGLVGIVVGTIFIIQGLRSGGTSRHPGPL
T2 sequence (MHC II beta, looked up): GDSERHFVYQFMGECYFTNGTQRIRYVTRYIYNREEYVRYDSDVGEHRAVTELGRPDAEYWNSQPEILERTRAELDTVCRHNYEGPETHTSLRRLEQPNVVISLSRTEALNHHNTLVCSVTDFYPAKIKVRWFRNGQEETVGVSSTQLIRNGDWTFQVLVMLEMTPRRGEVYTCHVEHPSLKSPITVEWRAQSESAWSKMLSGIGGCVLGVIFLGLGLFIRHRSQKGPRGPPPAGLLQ
Put plainly: FACS, splenocytes stained in vitro with different concentrations of Alexa647-labeled DC8 monomer or dimer; reference DC8 monomer. The procedure: as §1, §2

The target of assay [3] is T2, Class II MHC (mouse, on splenocytes and …). The assay can be described thus: FACS of spleen cells harvested 3 h after i.v. injection of Alexa647-labeled VHH into B6 mice; reference non-PEGylated DC8. The text has this:
Specificity was established by blocking the targets of these VHHs by introduction of unlabeled VHHs as competitors prior to imaging. […] To further confirm the specificity of the dimers in the absence of competing VHHs, MHC II^{-/-} and CD11b^{-/-} mice were imaged. No PET signals were detected in lymphoid organs, further confirming the specificity of both dimers (FIGS. 4E-4G). […] These experiments helped set the stage to explore ability of VHH dimers to image tumors. Two types of tumors were imaged with the developed bivalent VHHs by engraftment of mice with the B16 melanoma or the pancreatic tumor cell line panc02. Both the dimers readily detected the lymphoid organs as well as the B16 melanoma tumor or the panc02 graft. Upon excision, the panc-tumors were no more than ˜1-2 mm in diameter, showing the method to be sensitive. Postmortem biodistribution analysis correlated well with the FACS and two-photon results as well (FIGS. 5A-5B). It was examined whether circulatory half-life could be manipulated to further improve the signal to noise ratio. PEGylation of VHHs results in increased circulatory half-life, where the increase correlates with the size of the attached PEG group^{[15]}. VHHs sortagged with substrate 2 or 3 were reacted with DBCO-functionalized PEG (5 kDa, 10 kDa or 20 kDa) to yield the final PEGylated VHHs (FIGS. 2E-2F). B6 mice received 5 μg of PEGylated VHH and were euthanized 3 h later, followed by dissection of lymph nodes and spleen for FACS and two-photon microscopy.

T1 sequence (P05555 17-1153): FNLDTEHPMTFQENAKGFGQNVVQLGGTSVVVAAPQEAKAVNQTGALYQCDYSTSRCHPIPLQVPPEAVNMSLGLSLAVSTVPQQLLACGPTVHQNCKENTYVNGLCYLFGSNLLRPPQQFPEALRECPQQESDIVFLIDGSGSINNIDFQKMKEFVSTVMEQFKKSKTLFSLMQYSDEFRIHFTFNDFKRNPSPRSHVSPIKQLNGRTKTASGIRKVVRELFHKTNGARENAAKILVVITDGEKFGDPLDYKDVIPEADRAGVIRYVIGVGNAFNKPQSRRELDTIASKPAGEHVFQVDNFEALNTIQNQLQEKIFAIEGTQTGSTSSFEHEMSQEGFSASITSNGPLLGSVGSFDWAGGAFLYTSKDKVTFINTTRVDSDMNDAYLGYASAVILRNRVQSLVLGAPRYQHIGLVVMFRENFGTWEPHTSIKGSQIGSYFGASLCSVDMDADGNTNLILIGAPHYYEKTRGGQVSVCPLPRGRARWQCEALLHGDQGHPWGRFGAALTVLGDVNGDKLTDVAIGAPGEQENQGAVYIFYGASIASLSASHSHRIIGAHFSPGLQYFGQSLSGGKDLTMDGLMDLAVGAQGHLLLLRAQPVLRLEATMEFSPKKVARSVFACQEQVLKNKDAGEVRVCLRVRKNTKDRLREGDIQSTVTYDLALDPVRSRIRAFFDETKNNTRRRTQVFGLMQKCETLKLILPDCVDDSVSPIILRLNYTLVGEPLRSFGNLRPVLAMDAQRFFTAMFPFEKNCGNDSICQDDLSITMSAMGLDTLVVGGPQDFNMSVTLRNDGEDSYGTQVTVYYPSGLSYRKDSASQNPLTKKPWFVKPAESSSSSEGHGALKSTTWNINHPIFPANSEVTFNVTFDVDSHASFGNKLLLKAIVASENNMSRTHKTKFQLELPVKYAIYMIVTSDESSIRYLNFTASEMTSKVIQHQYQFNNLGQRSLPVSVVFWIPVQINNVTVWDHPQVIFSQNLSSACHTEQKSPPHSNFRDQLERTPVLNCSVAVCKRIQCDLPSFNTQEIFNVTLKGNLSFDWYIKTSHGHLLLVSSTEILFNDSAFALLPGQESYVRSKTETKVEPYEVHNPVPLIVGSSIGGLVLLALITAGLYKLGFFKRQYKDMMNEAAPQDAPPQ

B1: DC13 dimer (bivalent anti CD11b VHH, two DC13 joined via their C-termini by sortase and DBCO-azide click chemistry) (VHH)
VHH 1: QVQLQESGGGLVQTGGSLRLSCAASGVDFNWYSMGWFRQAPGKEREYVASIDQGGELDYAISVKGRFTISRDNAKNMVYLQMNSLKPEDTAVYYCAADFSGRGASNPDKYKYWGQGTQVTVSS
VHH 2: QVQLQESGGGLVQTGGSLRLSCAASGVDFNWYSMGWFRQAPGKEREYVASIDQGGELDYAISVKGRFTISRDNAKNMVYLQMNSLKPEDTAVYYCAADFSGRGASNPDKYKYWGQGTQVTVSS
modifications: C-terminal (Gly)3 continues as -PEG12-Cys(Alexa647, Texas Red or TCO/18F-tetrazine)-PEG5-Lys(azide); the azide is clicked to the DBCO of the other chain; C-terminal Cys carries maleimide-DBCO, clicked to the azide of the other chain
notes: Label differs by assay (Alexa647, 18F); also called DC13-dimer-Alexa647; 18F-DC13 dimer
As to B1, in assay [1], the “fold better binding than the corresponding monomer” value was about 2.3 fold.

B2: DC8 dimer (bivalent anti Class II MHC VHH, two DC8 joined via their C-termini by sortase and DBCO-azide click chemistry) (VHH)
VHH 1: QVQLQESGGGLVQPGGSLRLSCTASGFTFSTYYMSWVRKAPGKGPEWVSVMNSSGGDTRYADFVKGRFTISRDNAKNTLYLQMNSLKPEDTALYYCAQGRSDIYPTFTRGQGTQVTVSS
VHH 2: QVQLQESGGGLVQPGGSLRLSCTASGFTFSTYYMSWVRKAPGKGPEWVSVMNSSGGDTRYADFVKGRFTISRDNAKNTLYLQMNSLKPEDTALYYCAQGRSDIYPTFTRGQGTQVTVSS
modifications: C-terminal (Gly)3 continues as -PEG12-Cys(Alexa647, Texas Red or TCO/18F-tetrazine)-PEG5-Lys(azide); the azide is clicked to the DBCO of the other chain; C-terminal Cys carries maleimide-DBCO, clicked to the azide of the other chain
notes: Label differs by assay (Alexa647, Texas Red, 18F); also called 18F-DC8 dimer; anti Class II MHC dimer
In the case of B2, the “fold better binding than the corresponding monomer” value in assay [2] was about 3.3 fold.

B3: DC8-alexa647-PEG-10 kDa (site-specifically PEGylated DC8) (VHH)
VHH: QVQLQESGGGLVQPGGSLRLSCTASGFTFSTYYMSWVRKAPGKGPEWVSVMNSSGGDTRYADFVKGRFTISRDNAKNTLYLQMNSLKPEDTALYYCAQGRSDIYPTFTRGQGTQVTVSS
modifications: C-terminal (Gly)3 continues as -PEG12-Cys(Alexa647, Texas Red or TCO/18F-tetrazine)-PEG5-Lys(azide); the azide is clicked to DBCO-PEG 10 kDa
notes: Alexa647 form used for FACS, 18F form for PET and biodistribution; also called 10 kDa PEG-conjugated DC8; PEGylated DC8-Alexa647
B3: the “percent increase in staining versus non-PEGylated DC8” value in assay [3] was about 100%.

B4: DC8-alexa647-PEG-5 kDa (site-specifically PEGylated DC8) (VHH)
VHH: QVQLQESGGGLVQPGGSLRLSCTASGFTFSTYYMSWVRKAPGKGPEWVSVMNSSGGDTRYADFVKGRFTISRDNAKNTLYLQMNSLKPEDTALYYCAQGRSDIYPTFTRGQGTQVTVSS
modifications: C-terminal (Gly)3 continues as -PEG12-Cys(Alexa647, Texas Red or TCO/18F-tetrazine)-PEG5-Lys(azide); the azide is clicked to DBCO-PEG 5 kDa
notes: Alexa647 form used for FACS, 18F form for PET and biodistribution; also called 5 kDa PEG-conjugated DC8; PEGylated DC8-Alexa647
Regarding B4, in assay [3], the “percent increase in staining versus non-PEGylated DC8” value was about 30%.

B5: DC8-Alexa647-PEG-20 kDa (site-specifically PEGylated DC8) (VHH)
VHH: QVQLQESGGGLVQPGGSLRLSCTASGFTFSTYYMSWVRKAPGKGPEWVSVMNSSGGDTRYADFVKGRFTISRDNAKNTLYLQMNSLKPEDTALYYCAQGRSDIYPTFTRGQGTQVTVSS
modifications: C-terminal (Gly)3 continues as -PEG12-Cys(Alexa647, Texas Red or TCO/18F-tetrazine)-PEG5-Lys(azide); the azide is clicked to DBCO-PEG 20 kDa
notes: Alexa647 form used for FACS, 18F form for PET and biodistribution; also called 20 kDa PEG-conjugated DC8; PEGylated DC8-Alexa647
As to B5, the “percent increase in staining versus non-PEGylated DC8” value in assay [3] is about 220%.
